Test results reported in patent US20050163770A1 (CONNEX, published 2005).
Ends that are not written are not given here.

Tests used:
[1] = target: T1, human zeta-chain on the surface of CD8+ T-lymphocytes and NK-cells (human, UniProt P20963 22-164); assay: flow cytometry on human PBMC gated for CD8+ T-lymphocytes and NK-cells
T1 construct: whole, on cells; also called extracellular domain of the human zeta-chain on intact cells
Protocol: FIG. 3: Flowcytometry-analysis of the zeta-chain specific binding activity of the 2-B-5 antibody on the surface of CD8⁺-T-lymphocytes and NK-cells. 100.000 mononucleated cells from peripheral blood of two different healthy donors were incubated with undiluted cell culture supernatant of the 2-B-5 hybridoma. Bound zeta-chain specific rat antibody was detected by a fluorescein (FITC) conjugated goat-anti-rat Ig (IgG+IgM) antibody diluted 1:100 in PBS. Triple color fluorescence analysis was carried out by applying a positive gate for CD8⁺ (Tricolor) and a negative gate for CD16⁺ (PE) cells thus allowing the detection of FITC-mediated fluorescence (filled lines) exclusively attributed to CD8⁺-T-lymphocytes (phenotype: CD8⁺, CD16⁻) without any contaminating signals from CD8⁺-NK-cells. Similarly, triple color fluorescence analysis was carried out by applying a positive gate for CD56⁺-(PE) and a negative gate for CD3⁺-cells (tricolor) thus allowing the detection of FITC-mediated fluorescence (filled lines) exclusively attributed to NK-cells (phenotype: CD56⁺, CD3⁻) without any contaminating signals from CD56⁺-T-lymphocytes. As isotype control (broken lines) culture supernatant of an antibody with the same isotype (rat IgM) but irrelevant specificity was used. […] Cells were analyzed by flowcytometry on a FACS-scan (Becton Dickinson).

[2] = target: T2, zeta-peptide-BSA-conjugate (not fully specified (residue 11); also: C-terminal Cys thiol coupled to BSA); assay: ELISA of rat hybridoma supernatants (diluted 1:1) on immobilized zeta-peptide-BSA-conjugate
T2 construct: also called zeta-peptide conjugated to bovine serum albumin
T2 peptide: QSFGLLDPKLC

[3] = target: T3, native zeta-chain from the lysate of CD8+ T-lymphocytes (human, UniProt P20963 22-164); assay: sandwich ELISA: zeta-chain from lysate captured by the antibody to amino acids 144-163, 2-B-5 at 1 ug/ml
T3 construct: Endogenous protein in a detergent lysate, captured on the plate by an antibody to the C-terminus; also called zeta-chain molecules from the T-cell lysate
T3 sequence (P20963 22-164 limits assumed): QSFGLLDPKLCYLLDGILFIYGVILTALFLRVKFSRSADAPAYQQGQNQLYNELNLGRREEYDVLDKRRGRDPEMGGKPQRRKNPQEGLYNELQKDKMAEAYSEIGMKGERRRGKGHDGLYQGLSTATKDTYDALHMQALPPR
Protocol: FIG. 4: Results of a Sandwich-ELISA confirming the reactivity of antibody 2-B-5 with native zeta-chain present in the lysate of the CD8⁺-T-cell lymphocytes. A zeta-chain specific antibody, which recognizes the amino acids 144-163 at the carboxy-terminus of the human zeta chain was coated for 12 hours to the wells of a 96 U-bottom plate, followed by blockade for one hour at room temperature with PBS/3% BSA. Subsequently the lysate of CD8⁺-cells was added undiluted and in several dilutions and incubated for one hour at room temperature. As negative control, the wells were incubated with PBS instead of the cell lysate. […] Bound 2-B-5 antibody was detected with a biotinylated mouse-anti-rat IgM antibody followed by an Avidin-peroxidase-conjugate. […] The colored precipitate was measured at 405 nm using an ELISA-reader.
A zeta-chain specific antibody (Santa Cruz Biotechnology, Cat-No 1124), which recognizes the amino acids 144-163 at the carboxy-terminus of the zeta chain was coated to wells of a 96 U-bottom plate (Nunc, maxisorb) at a concentration of 5 μg/ml. […] Bound 2-B-5 antibody was detected with a biotinylated mouse-anti-rat IgM antibody (Zymed, San Francisco, Calif., USA; Cat-No 03-9840; working concentration 400 ng/ml) followed by an Avidin-peroxidase-conjugate (Dako, Hamburg; Code-No P 03347; working concentration 1 μg/ml). […]

T1 sequence (P20963 22-164): as the sequence (P20963 22-164 limits assumed) above

- binding result [1]: binds
- binding result [2]: binds
- binding result [3]: binds
B1: rat monoclonal anti-zeta-chain antibody 2-B-5 (rat IgM) (antibody, V domains shown)
VH: QVQLQQSGAELVKPGSSVKISCKASGYTFTSYDMHWIKQQPGNGLEWIGWIYPGNGNTKYNQKFNGKATLTADKSSSTAYMQLSSLTSEDSAVYFCARDWHYYSSYIRPFAYWGQGTLVTVSS
VL: DIQMTQSPASLSASPEEIVTITCQASQDIGNWLAWYQQKPGKSPQLLIYSATSLADGIPSRFSGSRSGTQYSLKISRLQVEDTGIYYCLQRYSNPNTFGAGTKLELK
notes: Rat IgM with kappa light chain; Used as hybridoma culture supernatant or purified by ion exchange chromatography; The constant regions are rat mu and kappa; also called 2-B-S; 2-B-5 hybridoma antibody
